Assays:
Settings in all cases: tags: C-terminal GS linker-SV40 NLS
[1] = molecular target: T1, Int10 (Streptococcus pneumoniae 670-6B); experiment: cell_activity
T1 chain: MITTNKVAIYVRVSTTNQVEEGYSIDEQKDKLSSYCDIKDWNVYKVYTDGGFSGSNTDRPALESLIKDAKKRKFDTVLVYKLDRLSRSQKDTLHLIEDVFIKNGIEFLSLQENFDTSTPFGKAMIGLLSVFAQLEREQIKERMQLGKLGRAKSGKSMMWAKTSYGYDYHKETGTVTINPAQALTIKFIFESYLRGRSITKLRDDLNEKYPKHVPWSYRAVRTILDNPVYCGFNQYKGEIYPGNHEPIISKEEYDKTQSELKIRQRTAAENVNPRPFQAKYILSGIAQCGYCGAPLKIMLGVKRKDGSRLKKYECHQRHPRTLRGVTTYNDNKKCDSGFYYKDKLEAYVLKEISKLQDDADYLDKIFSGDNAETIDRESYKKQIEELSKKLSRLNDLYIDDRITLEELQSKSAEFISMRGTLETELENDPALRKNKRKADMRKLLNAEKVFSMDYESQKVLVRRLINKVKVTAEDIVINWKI

[2] = molecular target: T2, Int8 (Staphylococcus haemolyticus JCSC1435); experiment: cell_activity; attB x attP EGFP inversion reporter, HEK293FT
T2 chain: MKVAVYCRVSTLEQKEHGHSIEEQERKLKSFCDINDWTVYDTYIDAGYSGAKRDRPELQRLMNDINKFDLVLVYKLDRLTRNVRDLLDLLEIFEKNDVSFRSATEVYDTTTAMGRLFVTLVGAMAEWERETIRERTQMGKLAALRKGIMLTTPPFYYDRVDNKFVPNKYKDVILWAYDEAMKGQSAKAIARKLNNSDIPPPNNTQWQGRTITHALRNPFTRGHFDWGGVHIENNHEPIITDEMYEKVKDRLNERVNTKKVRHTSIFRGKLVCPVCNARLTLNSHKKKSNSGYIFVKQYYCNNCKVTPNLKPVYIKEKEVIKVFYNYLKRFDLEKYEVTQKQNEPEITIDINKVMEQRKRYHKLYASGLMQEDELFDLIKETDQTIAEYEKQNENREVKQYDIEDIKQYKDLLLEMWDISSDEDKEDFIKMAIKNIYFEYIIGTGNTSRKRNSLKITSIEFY

[3] = molecular target: T3, Int12 (Staphylococcus lugdunensis N920143); experiment: as above
T3 chain: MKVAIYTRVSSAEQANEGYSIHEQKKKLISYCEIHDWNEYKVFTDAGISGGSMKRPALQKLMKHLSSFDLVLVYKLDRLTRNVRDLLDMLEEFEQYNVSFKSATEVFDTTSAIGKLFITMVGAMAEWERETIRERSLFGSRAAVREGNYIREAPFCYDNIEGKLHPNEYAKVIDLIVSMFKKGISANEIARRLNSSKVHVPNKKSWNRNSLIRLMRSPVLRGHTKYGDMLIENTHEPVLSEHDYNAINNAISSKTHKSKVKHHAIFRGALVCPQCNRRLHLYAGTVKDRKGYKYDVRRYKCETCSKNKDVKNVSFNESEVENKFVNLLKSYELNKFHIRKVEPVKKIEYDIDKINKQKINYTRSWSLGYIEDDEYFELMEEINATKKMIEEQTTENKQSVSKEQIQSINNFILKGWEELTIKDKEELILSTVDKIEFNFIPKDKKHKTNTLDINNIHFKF

[4] = molecular target: Int11 (Clostridium botulinum B str. Eklund 17B); experiment: as above
[5] = molecular target: T4, Int3 (Streptococcus pyogenes M1 GAS (phage …)); experiment: cell_activity
T4 chain: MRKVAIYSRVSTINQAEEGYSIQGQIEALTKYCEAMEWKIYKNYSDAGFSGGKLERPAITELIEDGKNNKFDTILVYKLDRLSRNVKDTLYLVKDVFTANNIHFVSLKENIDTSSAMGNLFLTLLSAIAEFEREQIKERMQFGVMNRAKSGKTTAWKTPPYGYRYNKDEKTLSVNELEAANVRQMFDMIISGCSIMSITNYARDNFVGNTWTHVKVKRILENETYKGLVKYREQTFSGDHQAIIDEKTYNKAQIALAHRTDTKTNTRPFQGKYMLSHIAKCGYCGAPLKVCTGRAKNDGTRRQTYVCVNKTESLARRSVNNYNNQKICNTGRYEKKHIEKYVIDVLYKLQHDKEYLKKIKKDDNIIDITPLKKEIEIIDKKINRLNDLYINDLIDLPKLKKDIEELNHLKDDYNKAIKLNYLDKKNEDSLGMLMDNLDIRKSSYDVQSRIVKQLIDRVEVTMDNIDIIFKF

[6] = molecular target: T5, Int2 (Streptomyces scabiei 87.22); experiment: cell_activity; attB x attP EGFP inversion reporter, HEK293FT
T5 chain: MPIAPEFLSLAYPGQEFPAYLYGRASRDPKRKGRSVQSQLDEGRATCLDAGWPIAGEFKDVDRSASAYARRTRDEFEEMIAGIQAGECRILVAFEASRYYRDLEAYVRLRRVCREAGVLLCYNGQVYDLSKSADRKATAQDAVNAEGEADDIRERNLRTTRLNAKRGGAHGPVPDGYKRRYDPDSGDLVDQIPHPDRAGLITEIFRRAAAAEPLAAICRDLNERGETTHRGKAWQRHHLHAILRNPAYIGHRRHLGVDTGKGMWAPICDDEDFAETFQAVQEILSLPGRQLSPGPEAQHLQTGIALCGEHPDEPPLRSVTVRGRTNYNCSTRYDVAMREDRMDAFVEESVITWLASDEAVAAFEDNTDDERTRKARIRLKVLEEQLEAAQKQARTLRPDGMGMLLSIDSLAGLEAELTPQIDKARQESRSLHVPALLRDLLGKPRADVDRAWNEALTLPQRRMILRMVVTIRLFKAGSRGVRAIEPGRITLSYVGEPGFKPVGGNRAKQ

[7] = molecular target: T6, Int9 (Staphylococcus aureus str. Newman); experiment: cell_activity
T6 chain: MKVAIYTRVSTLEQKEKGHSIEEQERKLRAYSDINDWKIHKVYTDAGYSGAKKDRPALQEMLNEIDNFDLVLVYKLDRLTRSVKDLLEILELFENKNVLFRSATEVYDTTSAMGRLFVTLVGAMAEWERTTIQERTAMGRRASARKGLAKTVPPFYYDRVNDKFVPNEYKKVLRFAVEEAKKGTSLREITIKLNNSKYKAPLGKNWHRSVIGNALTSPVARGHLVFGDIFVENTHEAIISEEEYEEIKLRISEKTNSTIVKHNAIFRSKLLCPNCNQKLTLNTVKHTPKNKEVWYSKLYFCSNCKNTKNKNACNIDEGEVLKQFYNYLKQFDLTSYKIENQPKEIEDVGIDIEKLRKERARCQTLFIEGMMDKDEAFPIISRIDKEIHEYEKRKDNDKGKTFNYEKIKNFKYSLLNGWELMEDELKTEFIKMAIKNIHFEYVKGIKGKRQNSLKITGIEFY

B1: Int10 attB (dsDNA)
DNA 1: AGCACGCTGATAATCAGCAAGACCACCAACATTTCCACCAATGTAAAAGCTTTAACCTTAGC
DNA 2: GCTAAGGTTAAAGCTTTTACATTGGTGGAAATGTTGGTGGTCTTGCTGATTATCAGCGTGCT
binding signal [1]: 5.49 fraction of Bxb1

B2: Int8 attP (dsDNA)
DNA 1: TTAATAAACTATGGAAGTATGTACAGTCTTGCAATGTTGAGTGAACAAACTTCCATAATAAAAT
DNA 2: ATTTTATTATGGAAGTTTGTTCACTCAACATTGCAAGACTGTACATACTTCCATAGTTTATTAA
binding signal [2]: 0.068 fraction of Bxb1

B3: Int12 attB (dsDNA)
DNA 1: GTTCGTGGTAACTATGGGTGGTACAGGTGCCACATTAGTTGTACCATTTATGTTTATGTGGTTAAC
DNA 2: GTTAACCACATAAACATAAATGGTACAACTAATGTGGCACCTGTACCACCCATAGTTACCACGAAC
binding signal [3]: 0.821 fraction of Bxb1

B4: Int11 attP (dsDNA)
DNA 1: GTTTATATGTTTACTAATAAGACGCTCTCAACCCATAAAGTCTTATTAGTAAACATATTTCAACT
DNA 2: AGTTGAAATATGTTTACTAATAAGACTTTATGGGTTGAGAGCGTCTTATTAGTAAACATATAAAC
binding signal [4]: 1.81 fraction of Bxb1

B5: Int3 attB (dsDNA)
DNA 1: GTTTGTAAAGGAGACTGATAATGGCATGTACAACTATACTCGTCGGTAAAAAGGCATCTTAT
DNA 2: ATAAGATGCCTTTTTACCGACGAGTATAGTTGTACATGCCATTATCAGTCTCCTTTACAAAC
binding signal [5]: 1.11 fraction of Bxb1

B6: Int8 attB (dsDNA)
DNA 1: CAATCATCAGATAACTATGGCGGCACGTGCATTAACCACGGTTGTATCCCGTCTAAAGTACTCGT
DNA 2: ACGAGTACTTTAGACGGGATACAACCGTGGTTAATGCACGTGCCGCCATAGTTATCTGATGATTG
binding signal [2]: 0.068 fraction of Bxb1

B7: Int12 attP (dsDNA)
DNA 1: TTTTTGTATGTTAGTTGTGTCACTGGGTAGACCTAAATAGTGACACAACTGCTATTAAAATTTAA
DNA 2: TTAAATTTTAATAGCAGTTGTGTCACTATTTAGGTCTACCCAGTGACACAACTAACATACAAAAA
binding signal [3]: 0.821 fraction of Bxb1

B8: Int2 attB (dsDNA)
DNA 1: GGACGGCGCAGAAGGGGAGTAGCTCTTCGCCGGACCGTCGACATACTGCTCAGCTCGTC
DNA 2: GACGAGCTGAGCAGTATGTCGACGGTCCGGCGAAGAGCTACTCCCCTTCTGCGCCGTCC
binding signal [6]: 0.17 fraction of Bxb1

B9: Int11 attB (dsDNA)
DNA 1: ATGGATTTTGCAGATTCCCAGATGCCCCTACAGAAAGAGGTACAAAACATTTATTGGAATTAATT
DNA 2: AATTAATTCCAATAAATGTTTTGTACCTCTTTCTGTAGGGGCATCTGGGAATCTGCAAAATCCAT
binding signal [4]: 1.81 fraction of Bxb1

B10: Int9 attP (dsDNA)
DNA 1: GTGGTTGTTTTTGTTGGAAGTGTGTATCAGGTATCTGCATAGTTATTCCGAACTTCCAATTA
DNA 2: TAATTGGAAGTTCGGAATAACTATGCAGATACCTGATACACACTTCCAACAAAAACAACCAC
binding signal [7]: 0.08 fraction of Bxb1

B11: Int2 attP (dsDNA)
DNA 1: GCTCATGTATGTGTCTACGCGAGATTCTCGCCCGAGAACTTCTGCAAGGCACTGCTCTTGGCT
DNA 2: AGCCAAGAGCAGTGCCTTGCAGAAGTTCTCGGGCGAGAATCTCGCGTAGACACATACATGAGC
binding signal [6]: 0.17 fraction of Bxb1

B12: Int3 attP (dsDNA)
DNA 1: ATGGATAAAAAAATACAGCGTTTTTCATGTACAACTATACTAGTTGTAGTGCCTAAATAATGCTT
DNA 2: AAGCATTATTTAGGCACTACAACTAGTATAGTTGTACATGAAAAACGCTGTATTTTTTTATCCAT
binding signal [5]: 1.11 fraction of Bxb1

B13: Int9 attB (dsDNA)
DNA 1: TTTATATTGCGAAAAATAATTGGCGAACGAGGTAACTGGATACCTCATCCGCCAATTAAAATTTG
DNA 2: CAAATTTTAATTGGCGGATGAGGTATCCAGTTACCTCGTTCGCCAATTATTTTTCGCAATATAAA
binding signal [7]: 0.08 fraction of Bxb1

B14: Int10 attP (dsDNA)
DNA 1: GGAAAATATAAATAATTTTAGTAACCTACATCTCAATCAAGGATAGTAAAACTCTCACTCTT
DNA 2: AAGAGTGAGAGTTTTACTATCCTTGATTGAGATGTAGGTTACTAAAATTATTTATATTTTCC
binding signal [1]: 5.49 fraction of Bxb1

Source: US20240409906, “INTEGRASES, LANDING PAD ARCHITECTURES, AND ENGINEERED CELLS COMPRISING THE SAME” (Asimov Inc., published 2024)
